Test results taken from patent US20240376213A1 (YEDA RESEARCH AND DEVELOPMENT, published 2024).

Legend:
[1] = target: T1, recombinant extracellular domain of mouse PD-1 (Sino Biological) (mouse, UniProt Q02242 25-169); assay: binding ELISA titration on recombinant protein (FIG. 3A)
T1 construct: extracellular domain; Coated on ELISA plates at 1 ug/mL; also called mPD-1; recombinant mouse PD-1
T1 sequence (looked up): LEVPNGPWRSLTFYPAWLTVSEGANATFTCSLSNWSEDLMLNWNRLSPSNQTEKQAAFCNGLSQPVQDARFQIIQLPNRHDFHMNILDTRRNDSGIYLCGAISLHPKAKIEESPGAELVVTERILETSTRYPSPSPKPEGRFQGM

[2] = target: T2, mouse CLEC9A on cells (HEK293 cells stably overexpressing mCLEC9A; cDC1 among mouse splenocytes) (mouse, UniProt Q8BRU4 1-238); assay: dual-binding FACS doublet assay, 1:1 mix of CFSE/CellTrace-stained HEK293 cells expressing each target (FIG. 4A)
T2 construct: whole, on cells
T2 sequence (looked up): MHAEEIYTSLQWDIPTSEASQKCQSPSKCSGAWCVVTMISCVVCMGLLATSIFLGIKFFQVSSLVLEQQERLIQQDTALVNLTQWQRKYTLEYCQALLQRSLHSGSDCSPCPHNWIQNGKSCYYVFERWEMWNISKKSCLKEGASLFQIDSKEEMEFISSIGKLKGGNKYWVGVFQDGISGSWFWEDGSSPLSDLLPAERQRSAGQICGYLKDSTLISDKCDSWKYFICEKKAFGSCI

[3] = target: T3, mouse PD-1 on cells (HEK293 cells stably overexpressing mPD-1; PD-1+ CD8+ OT-1 T cells) (mouse, UniProt Q02242 25-288); assay: as above
T3 construct: whole, on cells; also called HEK293-mPD-1
T3 sequence (looked up): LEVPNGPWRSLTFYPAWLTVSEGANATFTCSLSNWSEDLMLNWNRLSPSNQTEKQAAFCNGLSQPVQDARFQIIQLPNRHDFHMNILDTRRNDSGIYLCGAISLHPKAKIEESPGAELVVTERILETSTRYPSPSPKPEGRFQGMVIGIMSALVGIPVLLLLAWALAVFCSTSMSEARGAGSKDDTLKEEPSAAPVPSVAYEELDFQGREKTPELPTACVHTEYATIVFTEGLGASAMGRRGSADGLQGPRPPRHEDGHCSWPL

[4] = target: T1, recombinant extracellular domain of …; assay: ELISA on recombinant mouse PD-1 (FIG. 3A)
[5] = target: T4, mouse XCR1 on cells (HEK293 cells stably overexpressing mXCR1; cDC1 among mouse splenocytes) (mouse, UniProt Q9R0M1 1-322); assay: FACS binding titration on HEK293-mXCR1 cells (FIG. 3B)
T4 construct: whole, on cells
T4 sequence (looked up): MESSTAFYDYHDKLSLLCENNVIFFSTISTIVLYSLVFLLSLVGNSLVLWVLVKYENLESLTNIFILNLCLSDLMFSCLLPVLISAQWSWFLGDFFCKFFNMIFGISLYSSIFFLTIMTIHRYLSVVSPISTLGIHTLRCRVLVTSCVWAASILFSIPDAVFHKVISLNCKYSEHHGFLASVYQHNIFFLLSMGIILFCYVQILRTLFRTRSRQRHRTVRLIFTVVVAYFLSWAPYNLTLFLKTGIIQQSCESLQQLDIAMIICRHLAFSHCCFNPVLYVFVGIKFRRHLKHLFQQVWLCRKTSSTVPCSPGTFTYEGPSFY

Measured: binding result

B1: PD-1/CLEC9A BiSE (bispecific immune synapse engager; anti-mouse PD-1 clone RMP1-14 arm x anti-mouse CLEC9A clone 10B4 arm) (bispecific antibody)
heavy 1: not shown
light 1: DIVMTQGTLPNPVPSGESVSITCRSSKSLLYSDGKTYLNWYLQRPGQSPQLLIYWMSTRASGVSDRFSGSGSGTDFTLKISGVEAEDVGIYYCQQGLEFPTFGGGTKLELERTVAAPSVFIFPPSDEQLKSGTASVVCLLNNFYPREAKVQWKVDNALQSGNSQESVTEQDSKDSTYSLSSTLTLSKADYEKHKVYACEVTHQGLSSPVTKSFNRGEC
heavy 2: QIVESGGGLVQPKESLKISCTASGFTFSNAAIYWVRQTPGKGLEWVGRIRTRPSKYATDYADSVRGRFTISRDDSKSMVYLQMDNLRTEDTAMYYCTPRATEDVPFYWGQGVMVTVSSASVAAPSVFIFPPSDEQLKSGTASVVCLLNNFYPREAKVQWKVDNALQSGNSQESVTEQDSKDSTYSLSSTLTLSKADYEKHKVYACEVTHQGLSSPVTKSFNRGECDRSEPKSCDKTHTCPPCPAPELLGGPSVFLFPPKPKDTLMISRTPEVTCVVVDVSHEDPEVKFNWYVDGVEVHNAKTKPREEQYASTYRVVSVLTVLHQDWLNGKEYKCKVSNKALPAPIEKTISKAKGQPREPQVCTLPPSREEMTKNQVSLSCAVKGFYPSDIAVEWESNGQPENNYKTTPPVLDSDGSFFLVSKLTVDKSRWQQGNVFSCSVMHEALHNHYTQKSLSLSPGKSAWSHPQFEK
light 2: DIVMTQTPSSQAVSAGEKVTMNCKSSQSVLYDENKKNYLAWYQQKSGQSPKLLIYWASTGESGVPDRFIGSGSGTDFTLTISSVQAEDLAVYYCQQYYDFPPTFGGGTKLELKSSASTKGPSVFPLAPSSKSTSGGTAALGCLVKDYFPEPVTVSWNSGALTSGVHTFPAVLQSSGLYSLSSVVTVPSSSLGTQTYICNVNHKPSNTKVDKKVEPKSC
notes: Knobs-into-holes, CrossMab (CH1-CL swap on the DC arm), Fc N297A, human IgG1/kappa backbone; copies: 1 + 1 + 1 + 1
binds: [1] | [2] | [3]

B2: PD-1/XCR1 BiSE (bispecific immune synapse engager; anti-mouse PD-1 clone RMP1-14 arm x anti-mouse XCR1 clone MARX10 arm) (bispecific antibody)
heavy 1: not shown
light 1: B1 light 1
heavy 2: QVQLQQPGAELVKPGASVKLSCKASGYTFTNYWIHWMKQRPGQGLEWIGMIHPNSDNTKYNEKFKAKAILTVDKSSSTAYMQLSSLTSEDSAVYYCARFANDGAYWGQGTLVTVSSASVAAPSVFIFPPSDEQLKSGTASVVCLLNNFYPREAKVQWKVDNALQSGNSQESVTEQDSKDSTYSLSSTLTLSKADYEKHKVYACEVTHQGLSSPVTKSFNRGECDRSEPKSCDKTHTCPPCPAPELLGGPSVFLFPPKPKDTLMISRTPEVTCVVVDVSHEDPEVKFNWYVDGVEVHNAKTKPREEQYASTYRVVSVLTVLHQDWLNGKEYKCKVSNKALPAPIEKTISKAKGQPREPQVCTLPPSREEMTKNQVSLSCAVKGFYPSDIAVEWESNGQPENNYKTTPPVLDSDGSFFLVSKLTVDKSRWQQGNVFSCSVMHEALHNHYTQKSLSLSPGKSAWSHPQFEK
light 2: DVVVTQTPLSLPVSLGDPASISCKSSQSLVHSNGNTYLHWYLQKPGQSPKLLIYKISNRFSGVPDRFSGSGSGTDFTLKISRVEAEDLGVYFCSQNTHVPYTFGGGTKLEIKSSASTKGPSVFPLAPSSKSTSGGTAALGCLVKDYFPEPVTVSWNSGALTSGVHTFPAVLQSSGLYSLSSVVTVPSSSLGTQTYICNVNHKPSNTKVDKKVEPKSC
notes: as for B1
binds: [4] | [5] | [3]
